This note sets out measurements from US20160331662A1 (UAB RESEARCH FOUNDATION, published 2016).

In data set [1] the target is T1, FL^SspB (S. gordonii DL1 SspB, residues 39-1433) (Streptococcus gordonii DL1, UniProt P16952 39-1433).
T1 construct: range 39-1433
T1 sequence: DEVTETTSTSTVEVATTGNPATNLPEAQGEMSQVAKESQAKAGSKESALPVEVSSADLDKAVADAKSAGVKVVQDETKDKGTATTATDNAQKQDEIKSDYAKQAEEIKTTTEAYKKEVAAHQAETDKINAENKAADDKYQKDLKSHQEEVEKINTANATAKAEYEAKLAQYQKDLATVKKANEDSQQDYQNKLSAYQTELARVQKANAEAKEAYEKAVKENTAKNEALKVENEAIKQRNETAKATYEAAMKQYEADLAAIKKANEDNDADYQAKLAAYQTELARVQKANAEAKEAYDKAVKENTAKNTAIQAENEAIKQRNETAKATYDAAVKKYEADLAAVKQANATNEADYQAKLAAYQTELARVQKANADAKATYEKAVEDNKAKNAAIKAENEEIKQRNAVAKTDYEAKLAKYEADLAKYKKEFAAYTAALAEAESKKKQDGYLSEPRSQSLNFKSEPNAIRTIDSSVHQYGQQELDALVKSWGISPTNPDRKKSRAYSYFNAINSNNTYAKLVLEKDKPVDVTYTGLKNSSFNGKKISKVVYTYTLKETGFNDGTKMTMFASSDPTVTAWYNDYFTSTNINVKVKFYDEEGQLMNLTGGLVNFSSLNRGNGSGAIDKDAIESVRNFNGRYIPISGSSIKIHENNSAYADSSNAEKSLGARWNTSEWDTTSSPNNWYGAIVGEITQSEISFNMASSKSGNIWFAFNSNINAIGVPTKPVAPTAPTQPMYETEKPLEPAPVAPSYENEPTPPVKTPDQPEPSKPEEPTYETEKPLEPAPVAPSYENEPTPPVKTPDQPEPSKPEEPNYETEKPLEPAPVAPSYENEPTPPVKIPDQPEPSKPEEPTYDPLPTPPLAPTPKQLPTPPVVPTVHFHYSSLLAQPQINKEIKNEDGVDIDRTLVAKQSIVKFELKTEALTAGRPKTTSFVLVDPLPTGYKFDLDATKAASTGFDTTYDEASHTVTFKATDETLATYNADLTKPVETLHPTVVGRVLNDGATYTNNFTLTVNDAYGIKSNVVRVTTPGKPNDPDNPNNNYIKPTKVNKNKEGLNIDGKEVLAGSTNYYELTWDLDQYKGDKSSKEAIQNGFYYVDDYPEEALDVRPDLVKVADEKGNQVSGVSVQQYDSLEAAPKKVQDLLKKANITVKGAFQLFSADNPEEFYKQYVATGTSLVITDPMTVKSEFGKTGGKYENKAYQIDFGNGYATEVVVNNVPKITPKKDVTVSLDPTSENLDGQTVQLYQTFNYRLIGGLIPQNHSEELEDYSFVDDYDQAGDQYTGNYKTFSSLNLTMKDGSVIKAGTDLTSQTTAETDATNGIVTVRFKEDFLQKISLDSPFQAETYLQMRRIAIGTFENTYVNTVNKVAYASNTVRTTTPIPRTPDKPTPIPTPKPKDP
Kind of data set: SPR, analyte over ligand immobilized on CM5 chip, 1:1 Langmuir model.

The target of the next data set is T2, C123^AgI/II (Streptococcus mutans UA159, UniProt P23504 1000-1486).
T2 construct: domain: C123
T2 sequence: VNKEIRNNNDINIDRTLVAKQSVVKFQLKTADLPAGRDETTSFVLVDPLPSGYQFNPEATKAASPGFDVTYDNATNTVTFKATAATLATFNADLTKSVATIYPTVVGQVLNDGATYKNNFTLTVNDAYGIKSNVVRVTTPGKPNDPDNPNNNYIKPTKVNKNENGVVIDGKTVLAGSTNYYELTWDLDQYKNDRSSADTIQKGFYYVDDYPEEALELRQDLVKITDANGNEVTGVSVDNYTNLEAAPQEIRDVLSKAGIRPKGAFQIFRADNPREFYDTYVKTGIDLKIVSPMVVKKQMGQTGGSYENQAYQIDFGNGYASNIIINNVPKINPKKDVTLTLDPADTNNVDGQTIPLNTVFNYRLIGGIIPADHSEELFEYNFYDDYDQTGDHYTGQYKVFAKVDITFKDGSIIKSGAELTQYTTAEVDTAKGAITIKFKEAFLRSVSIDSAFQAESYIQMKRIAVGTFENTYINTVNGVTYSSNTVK
The data set is described as above.

For data set [2], the target named is T3, FL^AgI/II (S. mutans UA159 Antigen I/II, full length recombinant construct) (Streptococcus mutans UA159, UniProt P23504 39-1562).
T3 construct: also called CG14
T3 sequence (P23504 39-1562): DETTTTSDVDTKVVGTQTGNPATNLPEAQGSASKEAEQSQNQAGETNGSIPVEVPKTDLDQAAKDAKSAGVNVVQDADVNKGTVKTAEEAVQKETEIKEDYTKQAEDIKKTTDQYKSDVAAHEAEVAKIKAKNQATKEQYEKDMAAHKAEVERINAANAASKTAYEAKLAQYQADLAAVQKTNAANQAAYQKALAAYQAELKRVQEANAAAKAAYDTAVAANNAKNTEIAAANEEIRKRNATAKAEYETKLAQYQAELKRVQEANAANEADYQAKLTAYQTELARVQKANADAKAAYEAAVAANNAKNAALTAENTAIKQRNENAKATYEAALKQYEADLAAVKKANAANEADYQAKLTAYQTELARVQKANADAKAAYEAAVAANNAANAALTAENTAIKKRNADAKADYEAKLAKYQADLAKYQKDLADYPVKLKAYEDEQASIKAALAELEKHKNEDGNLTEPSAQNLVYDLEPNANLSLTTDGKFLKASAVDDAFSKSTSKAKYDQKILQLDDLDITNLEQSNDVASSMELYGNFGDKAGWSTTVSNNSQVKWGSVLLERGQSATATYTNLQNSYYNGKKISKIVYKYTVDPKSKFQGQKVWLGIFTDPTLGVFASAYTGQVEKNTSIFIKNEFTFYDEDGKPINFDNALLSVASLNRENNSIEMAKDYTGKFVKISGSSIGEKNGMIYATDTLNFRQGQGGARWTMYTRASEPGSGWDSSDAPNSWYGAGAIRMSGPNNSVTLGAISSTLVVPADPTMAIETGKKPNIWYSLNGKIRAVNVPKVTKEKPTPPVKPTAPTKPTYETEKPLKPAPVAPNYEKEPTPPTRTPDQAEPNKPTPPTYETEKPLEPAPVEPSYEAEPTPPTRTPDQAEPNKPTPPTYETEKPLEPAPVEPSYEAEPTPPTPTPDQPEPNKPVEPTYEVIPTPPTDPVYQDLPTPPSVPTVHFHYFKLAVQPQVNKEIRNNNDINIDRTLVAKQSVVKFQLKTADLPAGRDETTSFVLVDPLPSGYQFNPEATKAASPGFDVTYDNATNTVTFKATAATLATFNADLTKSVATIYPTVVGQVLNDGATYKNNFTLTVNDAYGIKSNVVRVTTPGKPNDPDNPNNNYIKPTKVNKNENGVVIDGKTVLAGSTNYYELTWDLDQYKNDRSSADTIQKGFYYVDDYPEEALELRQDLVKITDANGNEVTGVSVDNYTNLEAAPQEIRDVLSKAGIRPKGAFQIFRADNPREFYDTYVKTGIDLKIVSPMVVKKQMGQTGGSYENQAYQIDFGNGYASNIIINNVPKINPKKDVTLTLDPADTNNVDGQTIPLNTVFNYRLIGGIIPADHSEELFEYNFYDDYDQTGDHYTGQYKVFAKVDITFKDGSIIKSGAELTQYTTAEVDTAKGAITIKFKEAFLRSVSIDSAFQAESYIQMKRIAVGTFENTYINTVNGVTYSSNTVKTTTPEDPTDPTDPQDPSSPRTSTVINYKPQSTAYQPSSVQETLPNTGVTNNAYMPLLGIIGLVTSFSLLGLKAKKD
The description is as above.

In another data set the target is T4, A3VP1^AgI/II (Streptococcus mutans UA159, UniProt P23504 386-874).
T4 construct: domain: A3VP1; also called A3VP1 of AgI/II
T4 sequence: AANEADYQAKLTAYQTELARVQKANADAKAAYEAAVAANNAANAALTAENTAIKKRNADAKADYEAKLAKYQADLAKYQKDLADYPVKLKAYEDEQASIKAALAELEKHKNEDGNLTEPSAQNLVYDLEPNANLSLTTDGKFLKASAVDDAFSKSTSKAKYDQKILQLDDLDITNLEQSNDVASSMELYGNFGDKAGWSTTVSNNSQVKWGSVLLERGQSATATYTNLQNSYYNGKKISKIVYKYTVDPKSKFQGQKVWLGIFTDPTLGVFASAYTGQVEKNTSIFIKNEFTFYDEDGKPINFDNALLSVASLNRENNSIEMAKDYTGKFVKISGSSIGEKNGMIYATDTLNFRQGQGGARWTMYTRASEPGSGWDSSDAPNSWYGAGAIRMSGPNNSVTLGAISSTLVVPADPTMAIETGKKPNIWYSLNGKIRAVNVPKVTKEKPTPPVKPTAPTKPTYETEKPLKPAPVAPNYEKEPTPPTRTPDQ
The description is as above.

Data set [3] deals with the molecule itself. Kind of data set: SPR, analyte over immobilized iSRCR123; quantity and unit not printed beside the number, told as 'nanomolar affinities'.

B1: iSRCR123 (receptor, not shown: small tags and cut ends)
chain: not shown
notes: domain: SRCR123; also called SRCRs; iSRCRs
Turning to B1, the Ka in data set [1] stood at 2.38e+07 M⁻¹; in the data set with C123^AgI/II, 1.15e+07 M⁻¹; in data set [2], 1.34e+08 M⁻¹; with A3VP1^AgI/II it was 7.98e+06 M⁻¹. Also, the equilibrium dissociation constant (Kd) in data set [1] turned out to be 42.1 nM; with C123^AgI/II, 87 nM; in data set [2] it was 7.46 nM; with A3VP1^AgI/II it was 125 nM; in data set [3], 6.72 nM. Moreover, the koff was found to be 0.000759 s⁻¹ in data set [1], 0.000721 s⁻¹ with C123^AgI/II, 0.000743 s⁻¹ in data set [2] and 0.00249 s⁻¹ with A3VP1^AgI/II. The kon in data set [1] worked out at 18200 M⁻¹ s⁻¹; with C123^AgI/II it was 8290 M⁻¹ s⁻¹; in data set [2], 99700 M⁻¹ s⁻¹; in the data set with A3VP1^AgI/II, 19900 M⁻¹ s⁻¹.
